Like-named read-outs stand apart in the source and are kept apart here.
Assays:
[1] = Ex vivo biodistribution of 111In-labeled variants in AR42J xenograft mice; set-up: species or system athymic nude mice; settings: athymic nude, mouse, iv, 1 ug, total radioactivity, 1 h post-injection; for tissue uptake at 1 h: AR42J tumor-bearing mice
Procedure: For studies involving three variants (DOTA -TATE, DOTA-MVK(ε)-TATE, and DOTA-β-Gal-TATE), AR42J cells (5 × 10^6 cells per mouse) were subcutaneously inoculated into the right shoulder of the mice. Tumors were allowed to grow for 3 weeks, reaching a volume of 100 –200 mm³ before being used in subsequent experiments. For biodistribution or PET imaging studies, mice bearing subcutaneous AR42J tumors were administered 1.4 – 1.8 MBq (1 μg) of 111In-labeled DOTA-TATE variants or 2.7 – 4.9 MBq (1 μg) of 86Y-labeled DOTA-TATE variants via tail vein injection. Biodistribution studies with 111In-labeled DOTA -TATE variants were performed 1 hour post -injection (n = 3 per cohort), while studies with 86Y-labeled DOTA-TATE variants were conducted at 1, 4, and 24 hours post -injection (n = 3 per cohort). Mice were euthanized by CO2 asphyxiation, and 10 tissues, including tumors, were collected. All samples were weighed and counted on a gamma counter (2480 Wizard 3, Perkin Elmer Inc., Waltham, MA, USA). Results are presented as percentage of injected activity per gram (%IA/g) and mean values ± standard deviations. […]

[2] = Ex vivo biodistribution screen of 111In-labeled DOTA-TATE derivatives in normal mice; set-up: species or system athymic nude mice; settings: 2 h post-injection; for tissue uptake at 2 h: athymic nude, mouse, iv, 1 ug per mouse, total radioactivity, normal athymic nude mice, mean
Procedure: The panel of 10 compounds were then tested in an initial biodistribution screen of 9 organs assessed in non-tumor-bearing mice at specific timepoints following administration of the radioconjugates. Each agent was initially labeled with ^111In, a long-lived gamma-emitting radioisotope suitable for biodistribution studies, with high radiochemical yields and purity (Fig. S12). The compounds were then dosed (1.55 ± 0.12 MBq; 1 μg per mouse) in healthy athymic nude mice via intravenous (i.v.) injection in phosphate-buffered saline (PBS; vehicle). After 2 hours, the mice were sacrificed and ex vivo biodistribution analysis was performed (Fig. 2). […] This was an expected finding because this variant was designed to bind serum albumin.
Radiolabeling and In Vivo Evaluation of DOTA-TATE Variants:
Biodistribution, PET Quantification, and Dosimetry
Radiolabeling: To perform the initial biodistribution screen, radiolabeling of 10 compounds, including DOTA-TATE, was carried out using 111In (Cardinal Health, Arbutus, MD, USA), an affordable and readily available gamma -emitting radioisotope with a moderate half -life (2.83 days), which affords efficient DOTA radiolabeling and facilitates handling. 111InCl3 (28 – 36 MBq) was diluted with 0.4 M NH 4OAc buffer (pH 5.2) and combined with DOTA -TATE variants (20 μg). The solution was mixed well and then incubated at 90 °C for 30 min.
Radiolabeling efficiency and radiochemical purity were determined by radio -TLC and radio - HPLC. Radiochemical yield was >95% and the material was used without further purification.
The specific activity was 1.55 ± 0.12 TBq/g (41.9 ± 3.2 Ci/g). […]
Radio-instant thin-layer chromatography (radio-iTLC) was performed using silicic acid-impregnated glass microfiber paper strips (iTLC-SA, Varian, Lake Forest, CA, USA) as the stationary phase, and 50 mM EDTA in 100 mM NH4OAc (pH 5.5) as the mobile phase, analyzed with a radio-TLC scanner (AR-2000, Eckert-Ziegler, Wilmington, MA, USA). For Ac-225, equilibration was allowed for at least 12 hours before scanning the TLC strips to confirm initial scans. Radio-HPLC analysis (Agilent 1260 Infinity II, Agilent Technologies Inc., Santa Clara, CA, USA) was conducted on a TSK- Octadecyl-4PW column (5 µm, 4.6 mm ID × 15 cm, Tosoh
Co. Tokyo, Japan) with gradient elution using 0.1% trifluoroacetic acid in water as mobile phase A and 0.1% trifluoroacetic acid in acetonitrile as Mobile phase B. The elution sequence was 0-5 […]
PET imaging and biodistribution: For initial biodistribution screen studies, normal mice were administered 1.4 – 1.8 MBq (1 μg) of 111In-DOTA-TATE variants via tail vein injection and biodistribution studies were conducted at 2 hours post -injection (n = 2 – 4 per cohort).
For studies involving three variants (DOTA -TATE, DOTA-MVK(ε)-TATE, and DOTA-β-Gal-TATE), AR42J cells (5 × 10^6 cells per mouse) were subcutaneously inoculated into the right shoulder of the mice. Tumors were allowed to grow for 3 weeks, reaching a volume of 100 –200 mm³ before being used in subsequent experiments. For biodistribution or PET imaging studies, mice bearing subcutaneous AR42J tumors were administered 1.4 – 1.8 MBq (1 μg) of 111In-labeled DOTA-TATE variants or 2.7 – 4.9 MBq (1 μg) of 86Y-labeled DOTA-TATE variants via tail vein injection. Biodistribution studies with 111In-labeled DOTA -TATE variants were performed 1 hour post -injection (n = 3 per cohort), while studies with 86Y-labeled DOTA-TATE variants were conducted at 1, 4, and 24 hours post -injection (n = 3 per cohort). Mice were euthanized by CO2 asphyxiation, and 10 tissues, including tumors, were collected. All samples were weighed and counted on a gamma counter (2480 Wizard 3, Perkin Elmer Inc., Waltham, MA, USA). Results are presented as percentage of injected activity per gram (%IA/g) and mean values ± standard deviations.
PET imaging to assess the uptake of three 86Y-labeled DOTA-TATE variants (2.7 – 4.9 MBq, 1 […]

[3] = blood, i.v. 1 μg (1.4–1.8 MBq), ex vivo gamma counting, mean, n = 3, read-out: Blood uptake
[4] = femur, i.v. 1 μg, ex vivo, mean, n = 3, read-out: Femur uptake
[5] = heart, i.v. 1 μg, ex vivo, mean, n = 3, read-out: Heart uptake
[6] = kidney, i.v. 1 μg, ex vivo, mean (± SD), n = 3, read-out: Kidney uptake
[7] = liver, i.v. 1 μg, ex vivo, mean, n = 3, read-out: Liver uptake
[8] = lung, i.v. 1 μg, ex vivo, mean, n = 3, read-out: Lung uptake
[9] = muscle, i.v. 1 μg, ex vivo, mean, n = 3, read-out: Muscle uptake
[10] = spleen, i.v. 1 μg, ex vivo, mean, n = 3, read-out: Spleen uptake
[11] = tumor (AR42J xenograft), i.v. 1 μg, ex vivo, mean (± SD), n = 3, read-out: Tumor uptake
[12] = blood, i.v. 1 μg (1.4–1.8 MBq), ex vivo gamma counting, n = 2–4, read-out: Blood uptake
[13] = femur, i.v. 1 μg, ex vivo, n = 2–4, read-out: Femur uptake
[14] = heart, i.v. 1 μg, ex vivo, n = 2–4, read-out: Heart uptake
[15] = intestine, i.v. 1 μg, ex vivo, n = 2–4, read-out: Intestine uptake
[16] = liver, i.v. 1 μg, ex vivo, n = 2–4, read-out: Liver uptake
[17] = lung, i.v. 1 μg, ex vivo, n = 2–4, read-out: Lung uptake
[18] = muscle, i.v. 1 μg, ex vivo, n = 2–4, read-out: Muscle uptake
[19] = spleen, i.v. 1 μg, ex vivo, n = 2–4, read-out: Spleen uptake

SMILES	tissue uptake at 1 h [1, 3] [%ID/g]	tissue uptake at 1 h [1, 4] [%ID/g]	tissue uptake at 1 h [1, 5] [%ID/g]	tissue uptake at 1 h ([1]; intestine, i.v. 1 μg, ex vivo, mean, n = 3, read-out: Intestine uptake) [%ID/g]	tissue uptake at 1 h [1, 6] [%ID/g]	tissue uptake at 1 h [1, 7] [%ID/g]	tissue uptake at 1 h [1, 8] [%ID/g]	tissue uptake at 1 h [1, 9] [%ID/g]	tissue uptake at 1 h [1, 10] [%ID/g]	tissue uptake at 1 h [1, 11] [%ID/g]	tissue to tissue ratio at 1 h ([1]; tumor and kidney, AR42J xenografts, ex vivo, read-out: Tumor-to-kidney (T/K) ratio)	tissue uptake at 2 h [2, 12] [%ID/g]	tissue uptake at 2 h [2, 13] [%ID/g]	tissue uptake at 2 h [2, 14] [%ID/g]	tissue uptake at 2 h [2, 15] [%ID/g]	tissue uptake at 2 h [2, 16] [%ID/g]	tissue uptake at 2 h [2, 17] [%ID/g]	tissue uptake at 2 h [2, 18] [%ID/g]	tissue uptake at 2 h [2, 19] [%ID/g]	Relative kidney retention, % rel. to DOTA-TATE ([2]; normal mice, 111In-DOTA-TATE set as 100%) [%]
CSCC[C@H](NC(=O)CN1CCN(CC(=O)O)CCN(CC(=O)O)CCN(CC(=O)O)CC1)C(=O)N[C@H](C(=O)N[C@@H](CCCCNC(=O)CCCC(=O)N[C@H](Cc1ccccc1)C(=O)N[C@H]1CSSC[C@@H](C(=O)N[C@H](C(=O)O)[C@@H](C)O)NC(=O)[C@H]([C@@H](C)O)NC(=O)[C@H](CCCCN)NC(=O)[C@@H](Cc2c[nH]c3ccccc23)NC(=O)[C@H](Cc2ccc(O)cc2)NC1=O)C(=O)O)C(C)C [^111In-DOTA-MVK(ε)-TATE, metal not drawn]	0.73	0.55	0.29	0.81	5.56 ± 0.29	0.31	0.73	0.27	0.16	5.44 ± 0.19	0.98	0.15	0.31	0.11	0.83	0.16	0.33	0.06	0.12	67
C[C@@H](O)[C@H](NC(=O)[C@@H]1CSSC[C@H](NC(=O)[C@@H](Cc2ccccc2)NC(=O)CN2CCN(CC(=O)O)CCN(CC(=O)O)CCN(CC(=O)O)CC2)C(=O)N[C@@H](Cc2ccc(O)cc2)C(=O)N[C@H](Cc2c[nH]c3ccccc23)C(=O)N[C@@H](CCCCN)C(=O)N[C@@H]([C@@H](C)O)C(=O)N1)C(=O)O [^111In-DOTA-TATE, metal not drawn, reference compound]	0.27	0.12	0.1		7.33 ± 0.04	0.23	0.49	0.06	0.1	5.67 ± 0.92		0.04	0.05	0.03	0.51	0.09	0.18	0.01	0.06	

Source: publication doi:10.1101/2025.09.11.675134, “Biodistribution-Driven Discovery Identifies a Glycosidase-Cleavable Linker to Reprogram Radiotheranostics” (bioRxiv, 2025)
